For experiment [1], the target named is T1, recombinant human βIG-H3 (human, UniProt Q15582 24-683).
T1 construct: Bought recombinant protein; also called rhβIG-H3; rhbIG-H3
T1 sequence (looked up): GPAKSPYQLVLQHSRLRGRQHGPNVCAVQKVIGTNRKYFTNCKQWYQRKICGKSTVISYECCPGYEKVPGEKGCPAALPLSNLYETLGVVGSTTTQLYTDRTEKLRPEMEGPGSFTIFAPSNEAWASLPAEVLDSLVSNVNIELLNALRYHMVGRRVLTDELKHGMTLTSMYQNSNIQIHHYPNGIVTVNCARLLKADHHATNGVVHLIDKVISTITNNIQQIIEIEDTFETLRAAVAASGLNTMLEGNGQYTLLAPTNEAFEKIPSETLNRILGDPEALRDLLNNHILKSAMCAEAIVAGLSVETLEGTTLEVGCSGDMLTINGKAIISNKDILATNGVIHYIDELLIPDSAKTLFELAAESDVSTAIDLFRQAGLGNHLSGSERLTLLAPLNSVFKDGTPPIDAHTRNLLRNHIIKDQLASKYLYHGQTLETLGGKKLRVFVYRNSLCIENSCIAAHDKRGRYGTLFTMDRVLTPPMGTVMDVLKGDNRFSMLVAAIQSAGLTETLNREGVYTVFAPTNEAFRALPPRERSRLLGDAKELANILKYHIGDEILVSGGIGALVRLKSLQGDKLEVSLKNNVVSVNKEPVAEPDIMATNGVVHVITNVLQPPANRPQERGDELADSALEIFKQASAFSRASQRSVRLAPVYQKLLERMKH
The experiment is described as follows: direct ELISA on coated rhβIG-H3, anti-human IgG-HRP. Background: In an ELISA, binding on a coated surface is turned into a signal by an enzyme label.

Experiment [2] concerns the target T1, recombinant human βIG-H3. Nature of the experiment: SPR Biacore T200, antibody captured via anti-human IgG, rhbIG-H3 as analyte, 1:1 fit, mean of n=3. The protocol:
(§1) The assays were conducted using Biacore T200 instrument. It was performed in 2 steps: [0324] The first step, called suitability test, was aiming at determining the optimal conditions to run the assay: here, best sensor chip and running buffer conditions are assessed to defined best signal/noise ratio. [0325] The second step is the run itself that was performed in triplicate to ensure reproducibility and robustness of the results.
(§2) For the first step, 2 sensors and various buffer conditions were assessed using the parental and Chimeric 18B3 mAbs as a reference. It was then defined that sensor Chip C1 was the most appropriate, and buffer containing 300 mM NaCl and 0.25 mg/mL BSA was reducing the non-specific binding and increased the signal.
(§3) Rate constants (kₐ, kd) and equilibrium dissociation constants (KD) of rhbIG-H3 interaction with six antibodies determined by SPR. Experimental data were fitted to a 1:1 binding model. Listed are mean values ±SD of n=3 independent experiments.
In general terms: Surface plasmon resonance follows binding to a sensor surface in real time, without labels.

Experiment [3] deals with T1, recombinant human βIG-H3. Nature of the experiment: SPR single cycle kinetics, mAb captured via anti-human IgG (Fc) on CM5, hβIG-H3 5-100 nM as analyte, 1:1 model; SCK2 Fc3. The protocol: (§4) Anti-Human IgG (Fc) antibody is chemically grafted on a CM5 sensorchip using amine coupling according to the Cytivia 22064888AF notice. Briefly, surface is first activated by injection of a NHS-EDC mixture. Then, several injections (3 on the 10 available on the kit) of Anti-Human IgG (25 μg/ml in immobilization buffer) adjusting the contact time are performed. Finally, the surfaces are deactivated with ethanolamine 1M pH 8.5.
(§5) A negative control Ab is immobilized on sensor flowcell 1 (Fc 1) and positive control (chimeric 18B3 mAB) on Fc 2. 18B3 variants Abs are immobilized on Fc3 and Fc4:
(§6) Injection of increasing concentrations (5; 10; 25; 50; 100 nM) of antigen (hβIG-H3) during 180 s is performed on each flowcell. Short dissociations are performed in RB between each antigen concentration. After injection of the highest antigen concentration (100 nM), a dissociation in RB is recorded during 3600 s. [0348] Three similar cycles with five injections of RB are carried out before the cycle of Antigen in order to perform double subtraction procedure (Blank run). [0349] Three similar cycles with five injection of RB and a dissociation time of 600 s are performed before the blank runs in order to stabilize the system (Startup run).

Experiment [4] deals with T1, recombinant human βIG-H3. Nature of the experiment: SPR single cycle kinetics, mAb captured via anti-human IgG (Fc) on CM5, hβIG-H3 5-100 nM as analyte, 1:1 model; SCK1 Fc3. The protocol: as §4, §5, §6
Experiment [5] concerns the target T1, recombinant human βIG-H3. The experiment is described as follows: SPR single cycle kinetics, mAb captured via anti-human IgG (Fc) on CM5, hβIG-H3 5-100 nM as analyte, 1:1 model; Fc4, first of two runs (run label misplaced in print). The protocol:
as §4, §5, §6

Experiment [6] concerns the target T1, recombinant human βIG-H3. Nature of the experiment: SPR single cycle kinetics, mAb captured via anti-human IgG (Fc) on CM5, hβIG-H3 5-100 nM as analyte, 1:1 model; SCK2 Fc4. The protocol:
as §4, §5, §6

The target in experiment [7] is T1, recombinant human βIG-H3. Nature of the experiment: direct ELISA on coated rhβIG-H3.
In experiment [8] the target is T1, recombinant human βIG-H3. Nature of the experiment: SPR single cycle kinetics, mAb captured via anti-human IgG (Fc) on CM5, hβIG-H3 5-100 nM as analyte, 1:1 model; SCK2 Fc2. The protocol:
as §4, §5, §6

Experiment [9] addresses T1, recombinant human βIG-H3. The experiment is described as follows: SPR single cycle kinetics, mAb captured via anti-human IgG (Fc) on CM5, hβIG-H3 5-100 nM as analyte, 1:1 model; SCK1 Fc2. The protocol: as §4, §5, §6
The target in experiment [10] is T1, recombinant human βIG-H3. The experiment is described as follows: SPR Biacore T200, antibody captured via anti-mouse IgG, rhbIG-H3 as analyte, 1:1 fit, mean of n=3. The protocol: as §1, §2, §3

From patent US20240368260A1 (INSTITUT NATIONAL DE LA SANTE ET DE LA RECHERCHE MEDICALE, published 2024) come the findings set out here.

Changes are numbered by the printed parent chain.

The Kd is the concentration at which binding is half-saturated. One may read the koff as the rate constant with which the complex falls apart. A word on the kon: it is a measure of how fast the partners come together.

B1: Humanized 18B3 B (H330-V1/L41-V1) (antibody, human IgG1, kappa, V domains shown)
VH: QVQLVESGGGVVQPGGSLRLSCAASGFTFSDYYMYWVRQAPGKGLEWVATISDGGIYKYYADSVKGRFTISRDSSKNTLYLQMNSLRAEDTAVYYCVRGWDRYDSWFACWGQGTTVTVSS
VL: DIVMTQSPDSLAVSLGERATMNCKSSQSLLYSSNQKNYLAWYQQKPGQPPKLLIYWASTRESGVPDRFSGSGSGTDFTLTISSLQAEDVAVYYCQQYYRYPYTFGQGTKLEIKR
notes: also called H-330/L-41; H330/L41
For the molecule B1, the “ELISA Titer” value with recombinant human βIG-H3 [1] came out at 0.047 µg/mL. Moreover, in the experiment with recombinant human βIG-H3 [2], the Kd stood at 0.535 nM, the koff is 0.000659 s⁻¹ and the kon is 1.23e+06 M⁻¹ s⁻¹.

B2: Humanized 18B3 E (H330-V1/L228-V1) (antibody, human IgG1, kappa, V domains shown)
VH: B1 VH
VL: DIVMTQSPLSLPVTPGEPASMSCRSSQSLLYSSNQKNYLAWYLQKPGQSPQLLIYWGSTRESGVPDRFSGSGSGTDFTLKISRVEAEDVGVYYCQQYYRYPYTFGQGTKLEIKR
notes: also called H330/L228
As to B2, in the experiment with recombinant human βIG-H3 [1], the “ELISA Titer” value came out at 0.04 µg/mL. Moreover, in the experiment with recombinant human βIG-H3 [2], the Kd worked out at 0.476 nM, the koff stood at 0.000583 s⁻¹ and the kon stood at 1.23e+06 M⁻¹ s⁻¹.

B3: Humanized 18B3 A (H311-V1/L41-V1) (antibody, human IgG1, kappa, V domains shown)
VH: B1 VH with V11L, Q13K, V37I, K58I, S75A, T78S
VL: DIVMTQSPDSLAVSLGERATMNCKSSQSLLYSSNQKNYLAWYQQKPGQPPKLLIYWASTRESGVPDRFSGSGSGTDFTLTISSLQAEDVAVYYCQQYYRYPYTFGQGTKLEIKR
notes: also called H311/L41
Turning to B3, the “ELISA Titer” value in the experiment with recombinant human βIG-H3 [1] turned out to be 0.041 µg/mL. In the experiment with recombinant human βIG-H3 [2], the Kd was 0.482 nM, the koff was found to be 0.000726 s⁻¹ and the association rate constant (kon) stood at 1.5e+06 M⁻¹ s⁻¹.

B4: 18B3 H330-V1.2/L41-V1 (antibody, human IgG1, kappa, V domains shown)
VH: B1 VH with C109S
VL: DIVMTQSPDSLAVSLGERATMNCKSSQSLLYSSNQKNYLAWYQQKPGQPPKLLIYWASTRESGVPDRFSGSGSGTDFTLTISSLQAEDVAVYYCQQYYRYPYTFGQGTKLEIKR
notes: also called H-330/L-41 V1.2; H330C102S/L-41
For the molecule B4, in the experiment with recombinant human βIG-H3 [3], the equilibrium dissociation constant (Kd) came out at 0.169 nM, the koff worked out at 0.000659 s⁻¹ and the kon was 3.9e+06 M⁻¹ s⁻¹. Also, in the experiment with recombinant human βIG-H3 [4], the Kd came to 0.124 nM, the koff turned out to be 0.000798 s⁻¹ and the kon was 6.46e+06 M⁻¹ s⁻¹. Further, in the experiment with recombinant human βIG-H3 [1], the “ELISA Titer” value came to 0.0038 µg/mL.

B5: Humanized 18B3 D (H311-V1/L228-V1) (antibody, human IgG1, kappa, V domains shown)
VH: B1 VH with V11L, Q13K, V37I, K58I, S75A, T78S
VL: B2 VL
notes: also called H311/L228
In the case of B5, in the experiment with recombinant human βIG-H3 [1], the “ELISA Titer” value stood at 0.046 µg/mL. Also, in the experiment with recombinant human βIG-H3 [2], the equilibrium dissociation constant (Kd) is 0.49 nM, the off-rate constant (koff) came out at 0.000707 s⁻¹ and the kon was 1.45e+06 M⁻¹ s⁻¹.

B6: 18B3 H330-V1.2/L228-V1 (antibody, human IgG1, kappa, V domains shown)
VH: B1 VH with C109S
VL: B2 VL
notes: also called H-330/L-228 V1.2
On to B6, for which, in the experiment with recombinant human βIG-H3 [5], the dissociation constant Kd is 0.12 nM, the koff was 0.000559 s⁻¹ and the kon was 4.66e+06 M⁻¹ s⁻¹. The “ELISA Titer” value in the experiment with recombinant human βIG-H3 [1] amounted to 0.0036 µg/mL. In the experiment with recombinant human βIG-H3 [6], the Kd came to 0.171 nM, the koff is 0.000478 s⁻¹ and the kon stood at 2.79e+06 M⁻¹ s⁻¹.

B7: H-169/L-315 (antibody, human IgG1, kappa, V domains shown)
VH: QVQLVQSGAEVKKPGSSVKVSCKASGFTFSDYYMYWVRQAPGQGLEWVGTISDGGIYAYYAQKVQGRFTITRDSSTSTLYLELSSLRSEDTAVYYCVRGWDRYDSWFACWGQGTTVTVSS
VL: EIVMTQSPATLSVSPGERATMSCRASQSLLYSSNQKNYLAWYQQKPGQAPRLLIYWASTRETGIPARFSGSGSGTEFTLTISSLQSEDFAVYYCQQYYRYPYTFGQGTKLEIKR
Consider B7, for which, in the experiment with recombinant human βIG-H3 [7], the binding result was “binds”.

B8: H-169/L-41 (antibody, human IgG1, kappa, V domains shown)
VH: B7 VH
VL: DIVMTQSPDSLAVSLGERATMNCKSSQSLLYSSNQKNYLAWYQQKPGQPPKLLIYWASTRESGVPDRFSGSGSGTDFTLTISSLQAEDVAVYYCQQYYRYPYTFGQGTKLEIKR
Regarding B8, the binding result in the experiment with recombinant human βIG-H3 [7] was “binds”.

B9: H-311/L-315 (antibody, human IgG1, kappa, V domains shown)
VH: B1 VH with V11L, Q13K, V37I, K58I, S75A, T78S
VL: B7 VL
Turning to B9, in the experiment with recombinant human βIG-H3 [7], the binding result is recorded as “binds”.

B10: H-169/L-228 (antibody, human IgG1, kappa, V domains shown)
VH: B7 VH
VL: B2 VL
Take B10: the binding result in the experiment with recombinant human βIG-H3 [7] is reported as “binds”.

B11: H-330/L-315 (antibody, human IgG1, kappa, V domains shown)
VH: B1 VH
VL: B7 VL
Consider B11, for which the binding result in the experiment with recombinant human βIG-H3 [7] is “binds”.

B12: Chimeric huIgG1 k 18B3 (antibody, V domains shown)
VH: EVQLVESGGGLVKPGGSLKLSCAASGFTFSDYYMYWVRQTPEKRLEWVATISDGGIYTYYPDSVKGRFTISRDSAKNNLYLQMTSLKSDDTAMYYCVRGWDRYDSWFACWGQGTLVTVSA
VL: DIVMSQSPSSLVVSAGEKVTMTCKSSQSLLYSSNQKNYLAWYRQKPGQSPKLLIYWASTRESGVPDRFTGSGSGTDFTLTISSVKAEDLAVYYCQQYYRYPYTFGGGTKLEIKR
notes: also called ch18B3; 18B3 chim
As for B12, the Kd is 0.0854 nM with recombinant human βIG-H3 [8], 0.0627 nM in the experiment with recombinant human βIG-H3 [9] and 0.187 nM in the experiment with recombinant human βIG-H3 [2]. For the same molecule, the koff in the experiment with recombinant human βIG-H3 [8] turned out to be 0.00016 s⁻¹; with recombinant human βIG-H3 [9], 0.00013 s⁻¹; with recombinant human βIG-H3 [2], 0.000247 s⁻¹. Further, the kon stood at 1.87e+06 M⁻¹ s⁻¹ with recombinant human βIG-H3 [8], 2.06e+06 M⁻¹ s⁻¹ with recombinant human βIG-H3 [9] and 1.32e+06 M⁻¹ s⁻¹ with recombinant human βIG-H3 [2]. For the same molecule, the “ELISA Titer” value with recombinant human βIG-H3 [1] was determined as 0.03 µg/mL.

B13: Mouse monoclonal 18B3 (antibody, V domains shown)
VH: B12 VH
VL: DIVMSQSPSSLVVSAGEKVTMTCKSSQSLLYSSNQKNYLAWYRQKPGQSPKLLIYWASTRESGVPDRFTGSGSGTDFTLTISSVKAEDLAVYYCQQYYRYPYTFGGGTKLEIK
notes: Mouse IgG1/k from hybridoma; also called m18B3; murine 18B3 mAb
As for B13, in the experiment with recombinant human βIG-H3 [10], the Kd amounted to 0.411 nM, the koff worked out at 0.000234 s⁻¹ and the kon was 572000 M⁻¹ s⁻¹.
